The text below walks through data of article PMC12431856, “Synthetic ZFTA fusions pinpoint disordered protein domain acquisition as a mechanism of brain tumorigenesis”.

The target in the data set is ZFTA ZF1 (UniProt C9JLR9 81-172). Nature of the data set: fluorescence polarization; FP: 25 mM citrate pH 5.6, 150 mM NaCl, 0.5 mM TCEP, 100 nM DNA, 15 nM-7.5 uM protein, 20 min, room temperature; NMR: same buffer with 5% D2O, 25 C. To be noted: protein: recombinant; tags: none (His6-MBP removed by TEV); label: 5'-Cy5 on top strand; blunt.
ZFTA ZF1, sequence (C9JLR9 81-172): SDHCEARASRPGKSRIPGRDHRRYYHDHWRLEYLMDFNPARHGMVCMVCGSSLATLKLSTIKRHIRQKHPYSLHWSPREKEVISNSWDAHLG

B1: Cy5 PLAGL motif DNA (dsDNA)
DNA 1: GATCCATGGCCCCATGGATG
DNA 2: CATCCATGGGGCCATGGATC
Regarding B1, the binding result is listed as “binds”.
